The values below come from US20250179197A1.

Test [1] addresses T1, IL-18 receptor (IL-18Rα and IL-18Rβ) on HEK-Blue IL-18 cells (UniProt Q13478).
T1 sequence (looked up) 1: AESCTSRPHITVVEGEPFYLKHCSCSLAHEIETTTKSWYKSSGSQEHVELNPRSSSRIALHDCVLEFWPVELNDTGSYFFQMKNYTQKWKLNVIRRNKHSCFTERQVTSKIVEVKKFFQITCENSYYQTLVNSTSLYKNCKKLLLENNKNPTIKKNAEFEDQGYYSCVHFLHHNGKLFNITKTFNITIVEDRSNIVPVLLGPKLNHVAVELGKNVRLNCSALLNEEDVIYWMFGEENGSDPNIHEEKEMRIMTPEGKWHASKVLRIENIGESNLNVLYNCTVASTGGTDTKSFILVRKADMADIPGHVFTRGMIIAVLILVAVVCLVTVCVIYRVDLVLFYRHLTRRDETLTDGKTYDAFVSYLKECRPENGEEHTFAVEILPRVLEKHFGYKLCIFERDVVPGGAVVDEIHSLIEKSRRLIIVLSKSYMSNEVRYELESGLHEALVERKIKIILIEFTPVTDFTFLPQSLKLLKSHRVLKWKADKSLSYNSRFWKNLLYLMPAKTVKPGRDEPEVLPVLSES
T1 sequence (looked up) 2: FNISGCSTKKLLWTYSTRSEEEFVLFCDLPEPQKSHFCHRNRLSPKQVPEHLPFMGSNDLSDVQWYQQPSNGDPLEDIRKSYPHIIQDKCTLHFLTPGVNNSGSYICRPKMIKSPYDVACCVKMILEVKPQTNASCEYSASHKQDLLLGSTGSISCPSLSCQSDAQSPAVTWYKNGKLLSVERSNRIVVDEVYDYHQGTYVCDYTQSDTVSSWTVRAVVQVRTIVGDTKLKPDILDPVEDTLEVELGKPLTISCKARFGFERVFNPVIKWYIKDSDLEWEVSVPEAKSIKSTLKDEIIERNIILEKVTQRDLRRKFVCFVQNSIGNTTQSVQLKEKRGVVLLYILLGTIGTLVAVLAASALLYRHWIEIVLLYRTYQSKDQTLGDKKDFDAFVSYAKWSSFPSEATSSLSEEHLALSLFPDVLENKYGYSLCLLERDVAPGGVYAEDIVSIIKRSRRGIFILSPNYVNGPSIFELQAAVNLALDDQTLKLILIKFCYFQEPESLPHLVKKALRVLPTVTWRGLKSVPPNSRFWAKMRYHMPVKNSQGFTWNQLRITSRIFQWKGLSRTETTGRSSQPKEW
Kind of test: cell-based or functional assay.

In test [2] the target is T2, IL-18 receptor (IL-18Rα/IL-18Rβ) on human PBMCs (human) (UniProt Q13478).
T2 sequence (looked up) 1: T1 sequence (looked up) 1
T2 sequence (looked up) 2: T1 sequence (looked up) 2
The test is described as follows: cell-based or functional assay.

Sequence of Human IL-18 (Q14116 37-193 limits assumed): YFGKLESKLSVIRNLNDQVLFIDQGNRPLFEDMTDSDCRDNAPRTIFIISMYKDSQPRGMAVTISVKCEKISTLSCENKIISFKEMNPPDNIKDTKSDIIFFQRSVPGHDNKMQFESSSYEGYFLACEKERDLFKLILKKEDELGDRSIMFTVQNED

In test [1], “Human IL-18 (from UniProt Q14116 37-193) (ligand)” showed an HEK-Blue: Abs 405 at 100 nM of 2.6 absorbance and an HEK-Blue: Fold over background of 14.4 fold. For the same substance, in test [2], the Calculated maximum induction of IFN-γ after 24 hours, donor 1 is 42000; the Calculated maximum induction of IFN-γ after 24 hours, donor 2 was 5300; the Calculated maximum induction of IFN-γ after 24 hours, donor 3 was 89000; the Calculated maximum induction of IFN-γ after 24 hours, donor 4 is 69000. In test [2], the Calculated maximum induction of IFN-γ after 24 hours, donor 5 is 150000 and the Calculated maximum induction of IFN-γ after 24 hours, donor 6 was 28000.
